Measured values published in publication PMC4141198, “The conserved ubiquitin-like protein Hub1 plays a critical role in splicing in human cells” (Journal of Molecular Cell Biology, 2014).

Target: T1, 6xHis-tagged human Hub1 (human, UniProt Q9BZL1 1-73)
T1 construct: human Hub1 (UBL5) expressed from pET28a; also called UBL5; purified Hub1; source: E. coli BL21-CodonPlus (DE3)-RIL, purified (Ni-NTA, Superdex 75)
T1 sequence: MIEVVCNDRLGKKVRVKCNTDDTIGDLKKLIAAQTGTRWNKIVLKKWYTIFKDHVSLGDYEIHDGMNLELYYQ
Assay: crystal structure; Hub1 mixed with the HIND peptide at a molar ratio of 1:3, complex separated on Superdex 75; crystals at 20°C in 0.1 M Tris/HCl pH 9.0, 0.15 M sodium acetate, 20% PEG 4000; 2.0 Å
Conditions: both partners purified

binding result: binds
B1: hSnu66 HIND peptide (residues 117-135) (peptide)
peptide: SLSIEETNKLRAKLGLKPL
notes: residues 117-135 of human Snu66 (SART1), the single HIND element; source: synthetic peptide
